This assay has as its target T1, mCherry tagged HsC53 (human, UniProt Q96JB5 1-506).
T1 construct: C53 (CDK5RAP3), Homo sapiens; also called human C53; mCh-HsC53; source: E. coli Rosetta2 (DE3) pLysS, purified (HisTrap, ion exchange, SEC)
T1 sequence (looked up): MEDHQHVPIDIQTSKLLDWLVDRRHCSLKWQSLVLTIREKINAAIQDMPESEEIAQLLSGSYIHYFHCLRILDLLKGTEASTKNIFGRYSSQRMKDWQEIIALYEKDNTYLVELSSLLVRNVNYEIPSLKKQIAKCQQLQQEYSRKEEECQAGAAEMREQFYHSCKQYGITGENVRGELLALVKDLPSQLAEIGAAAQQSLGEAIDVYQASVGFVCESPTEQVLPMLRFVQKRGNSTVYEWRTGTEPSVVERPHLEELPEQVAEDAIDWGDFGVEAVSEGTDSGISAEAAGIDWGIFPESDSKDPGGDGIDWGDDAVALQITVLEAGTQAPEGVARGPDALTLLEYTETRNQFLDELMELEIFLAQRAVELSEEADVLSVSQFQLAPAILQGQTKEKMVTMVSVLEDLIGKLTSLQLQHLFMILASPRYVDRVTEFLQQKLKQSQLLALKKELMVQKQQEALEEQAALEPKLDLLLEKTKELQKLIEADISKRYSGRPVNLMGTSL
Briefly: microscopy-based on-bead protein-protein interaction assay; GST-tagged bait (2 µM) on Glutathione Sepharose 4B beads, 1 µM mCherry tagged partner with or without competitor, 25 mM HEPES pH 7.5, 150 mM NaCl, 1 mM DTT, 30-60 min at RT, confocal imaging; fluorescence normalized to the control condition. As to conditions: both partners purified.

B1: GST-GABARAP (natural protein, human, UniProt O95166 1-117, looked up)
chain: MKFVYKEEHPFEKRRSEGEKIRKKYPDRVPVIVEKAPKARIGDLDKKKYLVPSDLTVGQFYFLIRKRIHLRAEDALFFFVNNVIPPTSATMGQLYQEHHEEDFFLYIAYSDESVYGL
notes: GABARAP, human ATG8 isoform; also called human ATG8 isoform GABARAP; source: E. coli Rosetta2 (DE3) pLysS; in bacterial lysate (pull-downs) and purified (on-bead assays)
With B1, the binding result was “binds”.

The record behind these values is paper doi:10.1101/2022.04.26.489478, “Shuffled ATG8 interacting motifs form an ancestral bridge between UFMylation and C53-mediated autophagy” (bioRxiv, 2022).
